# From patent US20220003772A1, “METHODS OF TREATING CANCER” (priority 2018, published 2022)
# How the values were obtained:
# [1] = molecular target: T1, free sBCMA (Homo sapiens, UniProt Q02223); experiment: Reduction of free sBCMA in serum after infusion (free sBCMA MSD immunoassay); type: in vivo; details: at higher dose levels
# T1 construct: the extracellular portion of the BCMA receptor is cleaved from the membrane of the plasma cell surface; from tissue; host or cells: serum of clinical study subjects
# T1 sequence (Q02223 1-54 limits assumed): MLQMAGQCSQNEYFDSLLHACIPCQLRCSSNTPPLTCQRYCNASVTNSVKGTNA
# Description: In a dose escalation clinical study, 38 subjects were treated with J6M0-MMAF (Part1). The doses ranged from 0.03 mg/kg up to 4.60 mg/kg (0.03 mg/kg, 0.06 mg/kg, 0.12 mg/kg, 0.24 mg/kg, 0.48 mg/kg, 0.96 mg/kg, 1.92 mg/kg, 2.5 mg/kg, 3.4 mg/kg, and 4.6 mg/kg). An expansion cohort of 35 subjects followed at a dose of 3.40 mg/kg (Part2). […] Levels of circulating soluble BCMA (sBCMA) were followed during these studies. Soluble BCMA was measured in serum samples collected at pre- and post-infusion of J6M0-MMAF. Immunoassays (FIG. 1) were used to determine the levels of free sBCMA (FIG. 1a) and J6M0-MMAF-bound sBCMA (FIG. 1b).
# Free sBCMA Assay Protocol (FIG. 1a) 1.1. Preparation of Anti-BCMA Antibody Coated Plates (3 μg/ml)
# 1. An appropriate volume (˜3 mL per plate) of capture coating antibody was prepared—anti-BCMA antibody (J6M0) at 3 μg/mL in DPBS.
# 2. […]
# 1. 1×MSD read buffer was prepared as follows:
# 5 mL of 4×MSD read buffer T (Meso Scale Discovery #R92TC-1) plus 15 mL of Milli-Q water.
# 3. […], of 1× read buffer was transferred into to each well of the assay plate.
# 4. The MSD assay plate was read immediately by using the MSD Sector Imager 6000 (Meso Scale Discovery).
# The binding of J6M0-MMAF to sBCMA was measured by comparing the post-infusion levels of free sBCMA measured 60 minutes after the start of infusion to those found at pre-infusion. […]
# [2] = molecular target: T2, BCMA (Homo sapiens, UniProt Q02223); experiment: Dose escalation / expansion clinical study of J6M0-MMAF: response by IMWG criteria; type: in vivo; details: expansion cohort of 35 subjects (Part2), dose 3.40 mg/kg; 21/35; 95% CI 42.1-76.1
# T2 construct: BCMA membrane expression is present on a subset of normal late-stage B cells and is universally detected on normal and malignant plasma cells; endogenous in cells; host or cells: plasma/myeloma cells of the clinical study subjects (in vivo)
# T2 sequence (Q02223 1-184): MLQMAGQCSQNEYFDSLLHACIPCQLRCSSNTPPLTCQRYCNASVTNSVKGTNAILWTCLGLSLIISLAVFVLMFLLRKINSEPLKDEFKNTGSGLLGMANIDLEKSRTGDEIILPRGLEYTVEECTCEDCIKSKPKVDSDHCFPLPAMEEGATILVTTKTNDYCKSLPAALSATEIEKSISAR
substance,measurement,setting,value
J6M0-MMAF,binding of sBCMA by J6M0-MMAF in patients,[1],binds a large fraction of sBCMA
same,overall response rate (ORR) by IMWG criteria,[2],60%
